# Measured values published in patent publication US20160272683A1 (Novo Nordisk, published 2016).
# Numbered stars: 1 amine (or outer) side, 2 acyl side, 3 side chain; on linkers, the order of the positions; unused ones are H or OH. Side chains are listed from the residue outwards. Ends that are not written are not given here. * marks the point of attachment. C20 diacid = O=C(O)CCCCCCCCCCCCCCCCCCC(=O)*; C18 diacid = O=C(O)CCCCCCCCCCCCCCCCC(=O)*; C16 diacid = O=C(O)CCCCCCCCCCCCCCC(=O)*; γGlu = O=C(O)[C@H](CCC(=O)[*:2])N[*:1]; C14 diacid = O=C(O)CCCCCCCCCCCCC(=O)*; AEEA = NCCOCCOCC(=O)O
# T1: human amylin 3(a) receptor (human calcitonin receptor co-expressed with RAMP-3) (human, UniProt P30988 25-474; O60896 24-148, limits assumed)
# T1 sequence (looked up) 1: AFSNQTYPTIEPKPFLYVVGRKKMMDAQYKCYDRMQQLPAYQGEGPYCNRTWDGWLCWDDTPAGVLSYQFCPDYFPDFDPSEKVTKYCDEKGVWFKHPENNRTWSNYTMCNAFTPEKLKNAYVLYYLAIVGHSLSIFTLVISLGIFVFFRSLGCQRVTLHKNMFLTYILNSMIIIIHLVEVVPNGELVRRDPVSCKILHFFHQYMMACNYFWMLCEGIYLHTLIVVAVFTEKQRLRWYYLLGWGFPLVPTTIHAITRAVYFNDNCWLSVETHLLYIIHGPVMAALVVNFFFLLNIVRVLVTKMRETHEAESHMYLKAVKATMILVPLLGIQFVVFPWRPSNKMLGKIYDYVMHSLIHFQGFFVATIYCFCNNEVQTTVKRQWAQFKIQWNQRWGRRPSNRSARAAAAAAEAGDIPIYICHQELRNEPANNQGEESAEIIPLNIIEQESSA
# T1 sequence (looked up) 2: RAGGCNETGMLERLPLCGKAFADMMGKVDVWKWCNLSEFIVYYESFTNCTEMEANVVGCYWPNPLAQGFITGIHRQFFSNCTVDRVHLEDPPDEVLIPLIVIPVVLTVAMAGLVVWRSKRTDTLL
# T2: human calcitonin receptor (human, UniProt P30988 25-474)
# T2 sequence (looked up): T1 sequence (looked up) 1
# B1: [N-terminal(C18 diacid-gGlu), des1, 23Y, 30S, 31G]mimylin (peptide)
# peptide: {C18 diacid-γGlu}-ASELSTAALGRLSAELHELATYPRTETGSGSP-NH2
# SMILES: CC(C)C[C@H](NC(=O)[C@H](C)NC(=O)[C@H](C)NC(=O)[C@@H](NC(=O)[C@H](CO)NC(=O)[C@H](CC(C)C)NC(=O)[C@H](CCC(=O)O)NC(=O)[C@H](CO)NC(=O)[C@H](C)NC(=O)CC[C@H](NC(=O)CCCCCCCCCCCCCCCCC(=O)O)C(=O)O)[C@@H](C)O)C(=O)NCC(=O)N[C@@H](CCCNC(=N)N)C(=O)N[C@@H](CC(C)C)C(=O)N[C@@H](CO)C(=O)N[C@@H](C)C(=O)N[C@@H](CCC(=O)O)C(=O)N[C@@H](CC(C)C)C(=O)N[C@@H](Cc1c[nH]cn1)C(=O)N[C@@H](CCC(=O)O)C(=O)N[C@@H](CC(C)C)C(=O)N[C@@H](C)C(=O)N[C@H](C(=O)N[C@@H](Cc1ccc(O)cc1)C(=O)N1CCC[C@H]1C(=O)N[C@@H](CCCNC(=N)N)C(=O)N[C@H](C(=O)N[C@@H](CCC(=O)O)C(=O)N[C@H](C(=O)NCC(=O)N[C@@H](CO)C(=O)NCC(=O)N[C@@H](CO)C(=O)N1CCC[C@H]1C(N)=O)[C@@H](C)O)[C@@H](C)O)[C@@H](C)O
# B2: [N-terminal(C20 diacid-gGlu), des1, 23Y, 30S, 31G]mimylin (peptide)
# peptide: {C20 diacid-γGlu}-ASELSTAALGRLSAELHELATYPRTETGSGSP-NH2
# SMILES: CC(C)C[C@H](NC(=O)[C@H](C)NC(=O)[C@H](C)NC(=O)[C@@H](NC(=O)[C@H](CO)NC(=O)[C@H](CC(C)C)NC(=O)[C@H](CCC(=O)O)NC(=O)[C@H](CO)NC(=O)[C@H](C)NC(=O)CC[C@H](NC(=O)CCCCCCCCCCCCCCCCCCC(=O)O)C(=O)O)[C@@H](C)O)C(=O)NCC(=O)N[C@@H](CCCNC(=N)N)C(=O)N[C@@H](CC(C)C)C(=O)N[C@@H](CO)C(=O)N[C@@H](C)C(=O)N[C@@H](CCC(=O)O)C(=O)N[C@@H](CC(C)C)C(=O)N[C@@H](Cc1c[nH]cn1)C(=O)N[C@@H](CCC(=O)O)C(=O)N[C@@H](CC(C)C)C(=O)N[C@@H](C)C(=O)N[C@H](C(=O)N[C@@H](Cc1ccc(O)cc1)C(=O)N1CCC[C@H]1C(=O)N[C@@H](CCCNC(=N)N)C(=O)N[C@H](C(=O)N[C@@H](CCC(=O)O)C(=O)N[C@H](C(=O)NCC(=O)N[C@@H](CO)C(=O)NCC(=O)N[C@@H](CO)C(=O)N1CCC[C@H]1C(N)=O)[C@@H](C)O)[C@@H](C)O)[C@@H](C)O
# B3: [des1, 19K(C20 diacid-gGlu), 30S, 31G]mimylin (peptide)
# peptide: ASELSTAALGRLSAELHK([γGlu-C20 diacid])LATLPRTETGSGSP-NH2
# modifications: N-terminus assumed
# SMILES: CC(C)C[C@H](NC(=O)[C@H](C)NC(=O)[C@H](C)NC(=O)[C@@H](NC(=O)[C@H](CO)NC(=O)[C@H](CC(C)C)NC(=O)[C@H](CCC(=O)O)NC(=O)[C@H](CO)NC(=O)[C@H](C)N)[C@@H](C)O)C(=O)NCC(=O)N[C@@H](CCCNC(=N)N)C(=O)N[C@@H](CC(C)C)C(=O)N[C@@H](CO)C(=O)N[C@@H](C)C(=O)N[C@@H](CCC(=O)O)C(=O)N[C@@H](CC(C)C)C(=O)N[C@@H](Cc1c[nH]cn1)C(=O)N[C@@H](CCCCNC(=O)CC[C@H](NC(=O)CCCCCCCCCCCCCCCCCCC(=O)O)C(=O)O)C(=O)N[C@@H](CC(C)C)C(=O)N[C@@H](C)C(=O)N[C@H](C(=O)N[C@@H](CC(C)C)C(=O)N1CCC[C@H]1C(=O)N[C@@H](CCCNC(=N)N)C(=O)N[C@H](C(=O)N[C@@H](CCC(=O)O)C(=O)N[C@H](C(=O)NCC(=O)N[C@@H](CO)C(=O)NCC(=O)N[C@@H](CO)C(=O)N1CCC[C@H]1C(N)=O)[C@@H](C)O)[C@@H](C)O)[C@@H](C)O
# B4: [des1, 16K(C20 diacid-gGlu), 30S, 31G]mimylin (peptide)
# peptide: ASELSTAALGRLSAK([γGlu-C20 diacid])LHELATLPRTETGSGSP-NH2
# modifications: N-terminus assumed
# SMILES: CC(C)C[C@H](NC(=O)[C@H](C)NC(=O)[C@H](C)NC(=O)[C@@H](NC(=O)[C@H](CO)NC(=O)[C@H](CC(C)C)NC(=O)[C@H](CCC(=O)O)NC(=O)[C@H](CO)NC(=O)[C@H](C)N)[C@@H](C)O)C(=O)NCC(=O)N[C@@H](CCCNC(=N)N)C(=O)N[C@@H](CC(C)C)C(=O)N[C@@H](CO)C(=O)N[C@@H](C)C(=O)N[C@@H](CCCCNC(=O)CC[C@H](NC(=O)CCCCCCCCCCCCCCCCCCC(=O)O)C(=O)O)C(=O)N[C@@H](CC(C)C)C(=O)N[C@@H](Cc1c[nH]cn1)C(=O)N[C@@H](CCC(=O)O)C(=O)N[C@@H](CC(C)C)C(=O)N[C@@H](C)C(=O)N[C@H](C(=O)N[C@@H](CC(C)C)C(=O)N1CCC[C@H]1C(=O)N[C@@H](CCCNC(=N)N)C(=O)N[C@H](C(=O)N[C@@H](CCC(=O)O)C(=O)N[C@H](C(=O)NCC(=O)N[C@@H](CO)C(=O)NCC(=O)N[C@@H](CO)C(=O)N1CCC[C@H]1C(N)=O)[C@@H](C)O)[C@@H](C)O)[C@@H](C)O
# B5: [des1, 4K(C20 diacid-gGlu), 30S, 31G]mimylin (peptide)
# peptide: ASK([γGlu-C20 diacid])LSTAALGRLSAELHELATLPRTETGSGSP-NH2
# modifications: N-terminus assumed
# SMILES: CC(C)C[C@H](NC(=O)[C@H](C)NC(=O)[C@H](C)NC(=O)[C@@H](NC(=O)[C@H](CO)NC(=O)[C@H](CC(C)C)NC(=O)[C@H](CCCCNC(=O)CC[C@H](NC(=O)CCCCCCCCCCCCCCCCCCC(=O)O)C(=O)O)NC(=O)[C@H](CO)NC(=O)[C@H](C)N)[C@@H](C)O)C(=O)NCC(=O)N[C@@H](CCCNC(=N)N)C(=O)N[C@@H](CC(C)C)C(=O)N[C@@H](CO)C(=O)N[C@@H](C)C(=O)N[C@@H](CCC(=O)O)C(=O)N[C@@H](CC(C)C)C(=O)N[C@@H](Cc1c[nH]cn1)C(=O)N[C@@H](CCC(=O)O)C(=O)N[C@@H](CC(C)C)C(=O)N[C@@H](C)C(=O)N[C@H](C(=O)N[C@@H](CC(C)C)C(=O)N1CCC[C@H]1C(=O)N[C@@H](CCCNC(=N)N)C(=O)N[C@H](C(=O)N[C@@H](CCC(=O)O)C(=O)N[C@H](C(=O)NCC(=O)N[C@@H](CO)C(=O)NCC(=O)N[C@@H](CO)C(=O)N1CCC[C@H]1C(N)=O)[C@@H](C)O)[C@@H](C)O)[C@@H](C)O
# B6: [N-terminal(C20 diacid-gGlu), 1A, 23Y, 30S, 31G]mimylin (peptide)
# peptide: {C20 diacid-γGlu}-AASELSTAALGRLSAELHELATYPRTETGSGSP-NH2
# SMILES: CC(C)C[C@H](NC(=O)[C@H](C)NC(=O)[C@H](C)NC(=O)[C@@H](NC(=O)[C@H](CO)NC(=O)[C@H](CC(C)C)NC(=O)[C@H](CCC(=O)O)NC(=O)[C@H](CO)NC(=O)[C@H](C)NC(=O)[C@H](C)NC(=O)CC[C@H](NC(=O)CCCCCCCCCCCCCCCCCCC(=O)O)C(=O)O)[C@@H](C)O)C(=O)NCC(=O)N[C@@H](CCCNC(=N)N)C(=O)N[C@@H](CC(C)C)C(=O)N[C@@H](CO)C(=O)N[C@@H](C)C(=O)N[C@@H](CCC(=O)O)C(=O)N[C@@H](CC(C)C)C(=O)N[C@@H](Cc1c[nH]cn1)C(=O)N[C@@H](CCC(=O)O)C(=O)N[C@@H](CC(C)C)C(=O)N[C@@H](C)C(=O)N[C@H](C(=O)N[C@@H](Cc1ccc(O)cc1)C(=O)N1CCC[C@H]1C(=O)N[C@@H](CCCNC(=N)N)C(=O)N[C@H](C(=O)N[C@@H](CCC(=O)O)C(=O)N[C@H](C(=O)NCC(=O)N[C@@H](CO)C(=O)NCC(=O)N[C@@H](CO)C(=O)N1CCC[C@H]1C(N)=O)[C@@H](C)O)[C@@H](C)O)[C@@H](C)O
# Biological target: T1, human amylin 3(a) receptor (human …)
# Experiment: cell-based or functional assay
row,Binder,hAmylin-R funct. EC50 (pM)
1,{C14 diacid}-EASELSTAALGRLSAELHELATLPRTETGPESP-NH2 [[N-terminal(C14 diacid)]mimylin],6 pM
2,B1,10 pM
3,B2,22 pM
4,B3,28 pM
5,B4,22 pM
6,B5,39 pM
7,{C14 diacid-γGlu-γGlu-AEEA-AEEA-AEEA-AEEA}-EASELSTAALGRLSAELHELATLPRTETGPESP-NH2 [[N-terminal(C14 diacid-2xgGlu-4xOEG)]mimylin],27 pM
8,"{C16 diacid}-ASELSTAALGRLSAELHELATLPRTETGSGSP-NH2 [[N-terminal(C16 diacid), des1, 30S, 31G]mimylin]",10 pM
9,"{C14 diacid-γGlu}-ASELSTAALGRLSAELHELATLPRTETGSGSP-NH2 [[N-terminal(C14 diacid-gGlu), des1, 30S, 31G]mimylin]",6 pM
10,"{C14 diacid}-ASELSTAALGRLSAELHELATLPRTETGSGSP-NH2 [[N-terminal(C14 diacid), des1, 30S, 31G]mimylin]",7 pM
11,B6,20 pM

# Biological target: T2, human calcitonin receptor
# Experiment: cell-based or functional assay
row,Binder,hCTR funct. EC50 (pM)
1,{C14 diacid}-EASELSTAALGRLSAELHELATLPRTETGPESP-NH2 [[N-terminal(C14 diacid)]mimylin],2 pM
2,B1,10 pM
3,B2,23 pM
4,B3,19 pM
5,B4,31 pM
6,B5,34 pM
7,{C14 diacid-γGlu-γGlu-AEEA-AEEA-AEEA-AEEA}-EASELSTAALGRLSAELHELATLPRTETGPESP-NH2 [[N-terminal(C14 diacid-2xgGlu-4xOEG)]mimylin],7 pM
8,"{C16 diacid}-ASELSTAALGRLSAELHELATLPRTETGSGSP-NH2 [[N-terminal(C16 diacid), des1, 30S, 31G]mimylin]",10 pM
9,"{C14 diacid-γGlu}-ASELSTAALGRLSAELHELATLPRTETGSGSP-NH2 [[N-terminal(C14 diacid-gGlu), des1, 30S, 31G]mimylin]",4 pM
10,"{C14 diacid}-ASELSTAALGRLSAELHELATLPRTETGSGSP-NH2 [[N-terminal(C14 diacid), des1, 30S, 31G]mimylin]",5 pM
11,B6,22 pM
